Results taken from PMC9317729.

Biological target: S-RBD-Rhizavidin fusion protein (SARS-CoV-2 | not stated) (UniProt P0DTC2)
Assay: SEC-MALS; HPLC-SEC on AdvanceBio SEC 1.9 μm column, 0.4 mL/min, 20 mM HEPES, 100 mM sodium chloride, 25 °C; about 20 micrograms injected; MALS with first order Zimm fit

“S-RBD-Rhizavidin fusion protein (from UniProt P0DTC2 331-524)” was tested, and the stoichiometry N was 2.
